Experimental data from the supplement of paper PMC10724198.
± gives the standard deviation of the averaged measurements.

Test system: Saccharomyces cerevisiae
Test: protein stability index of tFT-peptide fusion (C-terminal peptide) (PSI (0-1 scale)); higher = more stable (slower turnover)
Conditions: genetic background: wild type; temperature: 30 C
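Further: PSI is a weighted mean of sequencing reads over stability bins, variants kept only with over 10 reads, mCherry proximal and sfGFP distal, peptide attached via GGGS linker.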

Row | Sequence | protein stability index
1 | TNSQTKKKINKI | 0.661 ± 0.038
2 | TNYIPRQSKKGG | 0.71 ± 0.022
3 | TNYKIKDDRLHR | 0.699 ± 0.014
4 | TPCTFPPLIRSP | 0.672 ± 0.039
5 | TPFLPLPSRPRR | 0.726 ± 0.0078
6 | TPHPPAAPPPPL | 0.766 ± 0.082
7 | TPLGLSVSSPPT | 0.661 ± 0.14
8 | TPLPLRFRCPYS | 0.639 ± 0.04
9 | TPLPPSALPLPL | 0.724 ± 0.066
10 | TPPSPLPPSPPR | 0.728 ± 0.058
11 | TPQTTQIKNEKH | 0.789 ± 0.14
12 | TPRAALVVSPLV | 0.7484 ± 0.0018
13 | TPRYALVRHHPR | 0.695 ± 0.098
14 | TPSCPALRGDAE | 0.661 ± 0.016
15 | TPSLLSPPLSLA | 0.7036 ± 0.0027
16 | TPSNTRPTLHIP | 0.6404 ± 0.0011
17 | TPSSLLLISPPS | 0.703 ± 0.083
18 | TQLNATVSWTEK | 0.665 ± 0.014
19 | TQSAPGIPGAGE | 0.65 ± 0.025
20 | TQVGTLANASGP | 0.671 ± 0.046
21 | TRAGRGGCASQD | 0.701 ± 0.028
22 | TRCGGRWGEGWR | 0.72 ± 0.028
23 | TRCRLRETISRR | 0.651 ± 0.067
24 | TRCSIPSSLSLM | 0.677 ± 0.016
25 | TRGTRGWGSVVG | 0.735 ± 0.018
26 | TRLKKTEKTKER | 0.739 ± 0.025

Row | Sequence | protein stability index
27 | TRLSRGTRVEYR | 0.651 ± 0.025
28 | TRLTSATHGVCC | 0.6331 ± 0.0053
29 | TRRAISPEGRWL | 0.645 ± 0.014
30 | TRRGDRVGVGSA | 0.589 ± 0.072
31 | TRYKSFWSLASI | 0.703 ± 0.064
32 | TSASLLLSFAVP | 0.6768 ± 0.0022
33 | TSGEIESTSKKK | 0.689 ± 0.055
34 | TSGHSCGRGLLD | 0.64 ± 0.012
35 | TSGLSSAGSRSL | 0.647 ± 0.044
36 | TSGPVSCLCECL | 0.598 ± 0.029
37 | TSKVEVDKGKLE | 0.723 ± 0.051
38 | TSLKGHFGIRLW | 0.6763 ± 0.0021
39 | TSMRRWSGRYGG | 0.743 ± 0.075
40 | TSPLPTLLNDPP | 0.523 ± 0.0081
41 | TSSWGGLVASLR | 0.74 ± 0.04
42 | TSSYFVLFLTSP | 0.635 ± 0.087
43 | TSVSLYWDSNLC | 0.751 ± 0.033
44 | TTGGRGSRVGGR | 0.6975 ± 0.0024
45 | TTQPQVGHHRTS | 0.715 ± 0.021
46 | TTRYKKQNRRKE | 0.74 ± 0.24
47 | TTSRADKEPFRL | 0.675 ± 0.027
48 | TTYYTKPPRPKR | 0.69 ± 0.035
49 | TVACILPLAQSL | 0.706 ± 0.075
50 | TVERRYTGDWGG | 0.726 ± 0.032
51 | TVFDPLGLPALL | 0.617 ± 0.04
52 | TVGGAMSCLGWL | 0.714 ± 0.011

Row | Sequence | protein stability index
53 | TVSEQWKLLGER | 0.736 ± 0.051
54 | TWMRIRLFRFIP | 0.5744 ± 0.0011
55 | TWVGPIRISNQQ | 0.639 ± 0.01
56 | TYIVVAPTLARL | 0.67 ± 0.095
57 | TYSERADLCAQL | 0.678 ± 0.016
58 | TYTELSFKNCVE | 0.713 ± 0.042
59 | VAASGEVVPLMA | 0.604 ± 0.046
60 | VACCKIRSGKSH | 0.687 ± 0.056
61 | VAGGTCGGRACC | 0.694 ± 0.099
62 | VALLRDSCLGVV | 0.671 ± 0.018
63 | VARGVGGGVWRS | 0.704 ± 0.015
64 | VASVWGVGFVAS | 0.694 ± 0.058
65 | VAVRGGSGDWGR | 0.713 ± 0.023
66 | VAVVSATVGASG | 0.68 ± 0.026
67 | VAVWWVQCAGGV | 0.66131 ± 0.00034
68 | VAWRQSVDLGLL | 0.685 ± 0.047
69 | VAWSACRLSLWG | 0.889 ± 0.016
70 | VAWYALPWCVLI | 0.6211 ± 0.0041
71 | VCAVPSILPPPP | 0.6902 ± 0.0061
72 | VCCSDSLCFVVS | 0.601 ± 0.052
73 | VCCSQWPLGFSV | 0.733 ± 0.068
74 | VCEGFRTWALGG | 0.722 ± 0.03
75 | VCESAGERVMGG | 0.705 ± 0.051
76 | VCGFRVGGYIGV | 0.723 ± 0.064
77 | VCGGGEGGERGG | 0.799 ± 0.057
78 | VCGLGGCGGLGV | 0.731 ± 0.039

Row | Sequence | protein stability index
79 | VCGSRAVRRTEL | 0.712 ± 0.07
80 | VCSGPKSPATQQ | 0.695 ± 0.048
81 | VCSGSGIGNLFE | 0.7912 ± 0.0019
82 | VCSPLLIYSVGV | 0.624 ± 0.051
83 | VCVDLFGLRASA | 0.631 ± 0.044
84 | VCVVALCLPHLP | 0.583 ± 0.012
85 | VDFVGFGGVEGG | 0.75 ± 0.059
86 | VDHWVCWCGGWG | 0.7734 ± 0.0072
87 | VDLGLYGYTDIW | 0.685 ± 0.035
88 | VDLVSRVVFQDR | 0.7231 ± 0.0015
89 | VDPAPPRRPPRY | 0.694 ± 0.097
90 | VDSYTGGFDLSW | 0.681 ± 0.062
91 | VECLDTKTTCNI | 0.73 ± 0.035
92 | VEEDPSSQLVIF | 0.599 ± 0.01
93 | VEFGIFACFTRP | 0.6687 ± 0.0019
94 | VERDARGESCSR | 0.747 ± 0.18
95 | VFAFLKPTGKLV | 0.597 ± 0.05
96 | VFCGACRLHLCL | 0.69 ± 0.077
97 | VFCGGGRFRCSR | 0.651 ± 0.023
98 | VFDHVGWPFWSY | 0.714 ± 0.041
99 | VFGWAGVGGDCG | 0.674 ± 0.012
100 | VFHCFVSRRRFC | 0.65 ± 0.022
101 | VFHSSTRDSFVS | 0.751 ± 0.066
102 | VFIVARGLSLIV | 0.536 ± 0.014
103 | VFLRGGVLPLRR | 0.691 ± 0.012
104 | VFLRVLLECLDF | 0.5666 ± 0.0036

Row | Sequence | protein stability index
105 | VFNLSIPLPSFP | 0.707 ± 0.046
106 | VFPARTALFFPQ | 0.726 ± 0.05
107 | VFQFVLGVILGW | 0.5289 ± 0.0035
108 | VFSASCYSNSAR | 0.739 ± 0.032
109 | VFWGGGAVGSVR | 0.69 ± 0.071
110 | VGAAGGVGGSGG | 0.629 ± 0.048
111 | VGACGWRGWCVV | 0.664 ± 0.011
112 | VGAFEGDWGVRH | 0.671 ± 0.099
113 | VGAGLRMRVGEA | 0.669 ± 0.035
114 | VGCRVVPGAGEV | 0.666 ± 0.016
115 | VGEGSGEWKFLD | 0.809 ± 0.06
116 | VGELGVFAPGGK | 0.5 ± 0.1
117 | VGFGFVRSLLVG | 0.6151 ± 0.005
118 | VGGGGAELCVVE | 0.667 ± 0.022
119 | VGGGGECCFLEG | 0.826 ± 0.1
120 | VGGGGRSTGVGK | 0.65 ± 0.044
121 | VGGGKRILVPRS | 0.691 ± 0.12
122 | VGGGLSLGGVWW | 0.691 ± 0.038
123 | VGGGRDLFFFKF | 0.602 ± 0.044
124 | VGGHGGVGGGMG | 0.651 ± 0.026
125 | VGGIVGWFCRGR | 0.698 ± 0.081
126 | VGGLGGVGGGMG | 0.654 ± 0.03
127 | VGGRAAIVRGGW | 0.6853 ± 0.0026
128 | VGGVAGSFIFSC | 0.759 ± 0.15
129 | VGGVGGGRAWWR | 0.685 ± 0.055
130 | VGKGALHCLPDL | 0.713 ± 0.0015

Row | Sequence | protein stability index
131 | VGKYVVTKNGGC | 0.694 ± 0.043
132 | VGPLIGQVGIDT | 0.748 ± 0.014
133 | VGPLYFPWSLNF | 0.692 ± 0.053
134 | VGPVDPGDSDGL | 0.699 ± 0.0065
135 | VGQPWRLHFILR | 0.648 ± 0.0062
136 | VGQVGAGAVPVG | 0.677 ± 0.037
137 | VGRESVVGEQFV | 0.625 ± 0.025
138 | VGRVGVRDGVVG | 0.613 ± 0.032
139 | VGRVGVREGVVG | 0.638 ± 0.067
140 | VGSGGGAPRVGR | 0.647 ± 0.072
141 | VGSGGGKGLCRQ | 0.674 ± 0.048
142 | VGSRGWGRWGVA | 0.693 ± 0.047
143 | VGSWVEVWGVIG | 0.687 ± 0.041
144 | VGTFGAGGYAPD | 0.646 ± 0.078
145 | VGTQIGLWVAQV | 0.591 ± 0.041
146 | VGTRGARREVQT | 0.734 ± 0.07
147 | VGVGGRRYNVRG | 0.66 ± 0.013
148 | VGVGGVGRRAKI | 0.687 ± 0.075
149 | VGVGNRRWGGGV | 0.679 ± 0.014
150 | VGVGRRGGVGEG | 0.654 ± 0.029
151 | VGVRCVGVLFGV | 0.637 ± 0.0072
152 | VGVRRAGGARGW | 0.634 ± 0.088
153 | VGVSGEGFSWGG | 0.674 ± 0.019
154 | VGVSGEGFSWVG | 0.675 ± 0.021
155 | VGVWRGWDVDCH | 0.776 ± 0.061
156 | VGWCTGWFVGLV | 0.6652 ± 0.0063

Row | Sequence | protein stability index
157 | VGWGGGVEEVKG | 0.712 ± 0.017
158 | VHFECFLVPFLL | 0.525 ± 0.028
159 | VHGRAPTSRSGT | 0.72 ± 0.043
160 | VHRRRVSVGGGG | 0.69 ± 0.0092
161 | VHWRDARFLRGM | 0.658 ± 0.045
162 | VHWVVFSVPRQA | 0.73 ± 0.033
163 | VIGRRRLQDWII | 0.736 ± 0.081
164 | VIRGVVPVVRSV | 0.668 ± 0.037
165 | VIRRLSNPCILR | 0.663 ± 0.067
166 | VITGGFVVGCCG | 0.623 ± 0.018
167 | VIYIEYIGRNFI | 0.631 ± 0.027
168 | VKEHRPQRNPSH | 0.675 ± 0.016
169 | VKEKKKDEKRKR | 0.747 ± 0.072
170 | VKENLCLLWVYR | 0.562 ± 0.013
171 | VKEVSVIKNHQG | 0.454 ± 0.11
172 | VKTIRVTKSVGD | 0.6941 ± 0.0057
173 | VKYPALMITGFW | 0.669 ± 0.015
174 | VLALPSSPLLPS | 0.643 ± 0.1
175 | VLARPQAKAPLG | 0.571
176 | VLGGSMWLDLVC | 0.781 ± 0.23
177 | VLGPFKKSIQVL | 0.522 ± 0.02
178 | VLGRLRVGRDRV | 0.7521 ± 0.0019
179 | VLGSSSKLGSLS | 0.647 ± 0.025
180 | VLGVVGNYFESA | 0.668 ± 0.078
181 | VLGWCLCGRTCG | 0.6579 ± 0.0013
182 | VLHGGKLFGFVR | 0.676 ± 0.017

Row | Sequence | protein stability index
183 | VLIFSSFRSLVF | 0.562 ± 0.081
184 | VLLAGPIPSALP | 0.662 ± 0.0079
185 | VLLGCRRAWVGF | 0.669 ± 0.018
186 | VLLHFRSFAPPV | 0.613 ± 0.008
187 | VLLYAPLLPPLA | 0.622 ± 0.018
188 | VLPRPLPALPPL | 0.683 ± 0.028
189 | VLRDLGVSLSRA | 0.785 ± 0.025
190 | VLRHRGEGGPGA | 0.67 ± 0.035
191 | VLSAPPGLLSYT | 0.623 ± 0.053
192 | VLSGLPPGFTLV | 0.644 ± 0.012
193 | VLSSASRGSRCL | 0.707 ± 0.17
194 | VLSSSTLFFLVF | 0.584 ± 0.024
195 | VLTFVWLVGQGF | 0.581 ± 0.048
196 | VLVFPVVYWILR | 0.543 ± 0.038
197 | VNLSNLRPCPTR | 0.707 ± 0.065
198 | VPASVRRSAPVP | 0.664 ± 0.044
199 | VPAVGGFLMFIG | 0.638 ± 0.0094
200 | VPCSIQWNLDEL | 0.673 ± 0.055
201 | VPDDGVLLSVLE | 0.7182 ± 0.0017
202 | VPFFLSNSSHIK | 0.679 ± 0.051
